# Fewer inactive variants are shown than the library holds.
# B1: TPR 5TU (parent)
# chain: GGAUCUUCUCGAUCUAACAAAAAAGACAAAUCUGCCACAAAGCUUGAGAGCAUCUUCGGAUGCAGAGGCGGCAGCCUUCGGUGGCGCGAUAGCGCCAACGUUCUCAACUAUGACACGCAAAACGCGUGCUCCGUUGAAUGGAGUUUAUCAUG
# Variants of: B1
# Experiment: polymerase ribozyme fitness, log enrichment relative to wild type (log ratio); higher = more active; in vitro selection for triplet polymerase activity
# Outline: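 Mutant libraries were PCR-built and transcribed for each subunit of a heterodimeric triplet polymerase ribozyme and selected for one round in triplicate at −7 °C, frozen, before gel excision of extended constructs and streptavidin-bead capture. Input and output libraries were Illumina-sequenced, keeping genotypes with ≥10 input reads and ≥1 read per output. Fitness is a logarithmic ratio of genotype to wild-type enrichment, in base 2, using inverse-variance-weighted replicate averages.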
row,Variant,polymerase ribozyme fitness (log ratio)
1,GGAUCUUCUCGAUCUAACAAAAAAGACAAAUAUGCCACAAAGCUUGAGAGCAUCUUCGGAUGCAGAGGCGGCAGCCUUCGGUGGUGCGAUAGCGCCAACGUUCUCAACUAUGACACGCAAAACGCGUGCUCCGUUGAAUGGAGUUUAUCAUG [C32A C85U],-4.06
2,GGAUCUUCUCGAUCUAACAAAAAAGACAAAUAUGCCACAAAGCUAGAGAGCAUCUUCGGGUGCAGAGGCGGCAGUCUUCGAUGGCGCGAGAGCGCCAACGUUCUCAACUAUGACAAGCAAAACGCGUGCUCCGUUGAAUGGAGUUUAUCAUG [C32A U45A A60G C75U G81A U90G C116A],≤ -4.2
3,GGAUCUUCUCGAUCUAACAAAAAAGACAAAUAGGCCACAAAGCUUGAGAGCAUCUUCGGAUGCAGGGGCGGCAGCCUUCGGUAGCGCGAUAGCGCCAACGUGCUCAACUAUGACACGGAAAACCCGUGCUCCGUUGAAUGCAUUUUAUCAUG [C32A U33G A66G G83A U102G C118G G124C G141C G143U],≤ -4.2
4,GGAUCUUCUCGAUCUAACAAAAAAGACAAAUAUGCCACAAAGCUUGAGAGCAUCUUCGGAUGCAGAGGCGGCAGCCUUCGGUAGCGCCAUAGCGCCAACGUUCUCAACUAUGACAGGCAAAACGCGUGCUCCGUUGAAUCGAGUUUAUCAUG [C32A G83A G88C C116G G140C],-4.04
5,GGAUCUUCUCGAUCUAACAAAAAAGACAAAUAUGCCACAAAGCUUGAGAUCAUCAUCGGAUGCAGAGGCGGCAGCCUUCGGUGGAGCGAUAGCGCCAACGUUCUCAACUAUGACACGCAAAACGCGUGCUCCGUUGAAUGGAGUUUAUCAUG [C32A G50U U55A C85A],≤ -4.2
6,GGAUCUUCUCGAUCUAACAAAAAAGACAAAUGUGCCACAAAGCUUGAGCGCAUCUUCGGAUGCAGAGGCGGCAGCCUUCGGUGGCGCGAUAGCGCCAACGUUCUCAACUAUGACACGCAAAACGCGUGCUCCGUUGAAUGGUGUUUAUCAUG [C32G A49C A142U],≤ -4.2
7,GGAUCUUCUCGAUCUAACAAAAAAGACAAAUAUGCCACAAAGCUUGAGAGCAUCUUCGGAUGCAGAGGCGGCAGCCUUCGGUGGCGCGAUAGCGCUAACGUUCUCAACUAUGACACGCAAAACGCGUGCUCCGUUGAAUGGAGUUUAUCAUG [C32A C96U],-4.11
8,GGAUCUUCUCGAUCUAACAAAAAAGACAAAUAUGCCACAAAGCUUGAGAGCAUCUUCGGAUGCAGAGGCGGCAGCCUUCGGUGUCGCGAUAGCGCCGACGUUCUCAACUAUGACACGCAAAACGCGUGCUUCGUUGAACGGAGUUUAUCAUG [C32A G84U A97G C131U U139C],≤ -4.2
9,GGAUCUUCUCGAUCUAACAAAAAAGACAAAUAUGCCACAAAGCUUGAGAGCAUCUUCGGAUGCAGAGGCGGCAGCCUUCGGUGACGCGAUAGCGCCAACGUUCUCAACUAUGACACGCAAAACGCGUGCUCCGUUGAAUGGAGUUUAUCAUG [C32A G84A],-3.57
10,GGAUCUUCUCGAUCUAACAAAAAAGACAAAUAUGCCACAAAGCUUGAGAGCAUCUUCCGAUGCUGAGGCGGCAGCCUUCGGUGGGGCGAUAGCGCCAACGUUCUCAACUAUGACACGCAAAACGCGUGCUCCGUUGAAUGGAGUUUAUCAUG [C32A G58C A64U C85G],≤ -4.2
11,GGAUCUUCUCGAUCUAACAAAAAAGACAAAUAUGCCACAAAGCUUGAGAGCAUCUUCGGAAGGAGUGGCGGCAGCCGUCGGUGGCGCGAUAGCGCCAACGUUCUCAACUAUGACACGCAAAACGCGUGCUCCGUUGAAUGGAGUUUAUCAUG [C32A U61A C63G A66U U77G],≤ -4.2
12,GGAUCUUCUCGAUCUAACAAAAAAGACAAAUGUGCCCCAAAGCUUGAGAGCAUCUUCGGAUGCAGAGGCGGCAGCCUUCGGUGGGGCGAUAGCGCCAACGUUCUCAACUAUGACACGCAAAACGCGUGCUCCGUUGAAUGGAGUUUAUCAUG [C32G A37C C85G],≤ -4.2
13,GGAUCUUCUCGAUCUAACAAAAAAGACAAAUAUGCCACAAAGCUUGAGAGCAUCUUCGGAUGCAGAGGCGGCAGCCUUCGGUGGCGCCAUAGCGCCAACGUUCUCAACUAUGACACGCAAAACGCGUGCUCCGUUGAAUGCAGUUUAUCAUG [C32A G88C G141C],≤ -4.2
14,GGAUCUUCUCGAUCUAACAAAAAAGACAAAUAUGCCACAAAGCUUGAGAACAUCUUCGGAUGCAGAGGCGGCAGCCUUCGGUGGCGCGAUAGCGCCAACGUUCUCAACUAUGACACGCAAAACGCGUGCUCCGUUGGAUGGAGUUUAUCAUG [C32A G50A A137G],≤ -4.2
15,GGAUCUUCUCGAUCUAACAAAAAAGACAAAUGUGCCACAAAGCUUGAGAGCAUCUUCGGAUGCAGAGGCGGCAGCCUUCGGUGGCGCGAUAGCGCCAACGUUCUCAACUAUGACACGCAAAACGCGUGCUCCGUUGAAUGGAGUUUAUCAUG [C32G],-3.19
16,GGAUCUUCUCGAUCUAACAAAAAAGACAAAUAUGCCACAAAGCUUGAGAGCAUCUUCGGAUGCAGAGGCGGCAGGCUUCGGUGGCGCGAUAACGCCAACGUUCUCAACUAUGACACGCAAAACGCGUGCUCCGUUGAAUGGAGUUUAUCUUG [C32A C75G G92A A150U],≤ -4.2
17,GGAUCUUCUCGAUCUAACAAAAAAGACAAAUGUGCCACAUAGCUUGAGAGCAUCUUUGGAUGCAGAGGCGGCAGCCUUCGGUGGCGCGAUAGCGCCAACGUUCUCAACUAUGACACGCAAAACGCGUGCUCCGUGGAAUGGAGUUUAUCAUG [C32G A40U C57U U135G],≤ -4.2
18,GGAUCUUCUCGAUCUAACAAAAAAGACAAAUGUGCCGCAAAGCUUGAGAGCAUCUUCGGAUGCAGAGGCGGCAGCCUUCGGUUGCGGGGUAGCGCCAACGUUCUCAACUAUGACACGCAAAACGCGUGCUCCCUUGAAUGGAGUUUAUCAUG [C32G A37G G83U C87G A89G G133C],≤ -4.2
19,GGAUCUUCUCGAUCUAACAAAAAAGACAAAUGUGCCACAAAGCUUGCGAGCAUCUUCGGAUGCAGAGGCGGCACCCUUCGGUGGCGCGAUAGCGCCAACGUUCUCAACUAUGACAUGCAAAACGCGUGCUCAGUUGAUUGGAGUUUAUCAUG [C32G A47C G74C C116U C132A A138U],≤ -4.2

# — the RNAGym collection of RNA variant scans (doi:10.1073/pnas.2313332121)
